Source: patent publication US20140072563A1 (Regeneron, published 2014)
Positions count from the first letter of the chain named. Values belong to the binder of their own block, whether it stands above or below them.

Molecular target: ErbB3 (cell surface, on MCF-7, DU145, A431 and MCF7 cells) (human, UniProt P21860 20-1342)
Experiment: cell-based or functional assay

ErbB3 (cell surface, on MCF-7, DU145, A431 and MCF7 cells), sequence (P21860 20-1342): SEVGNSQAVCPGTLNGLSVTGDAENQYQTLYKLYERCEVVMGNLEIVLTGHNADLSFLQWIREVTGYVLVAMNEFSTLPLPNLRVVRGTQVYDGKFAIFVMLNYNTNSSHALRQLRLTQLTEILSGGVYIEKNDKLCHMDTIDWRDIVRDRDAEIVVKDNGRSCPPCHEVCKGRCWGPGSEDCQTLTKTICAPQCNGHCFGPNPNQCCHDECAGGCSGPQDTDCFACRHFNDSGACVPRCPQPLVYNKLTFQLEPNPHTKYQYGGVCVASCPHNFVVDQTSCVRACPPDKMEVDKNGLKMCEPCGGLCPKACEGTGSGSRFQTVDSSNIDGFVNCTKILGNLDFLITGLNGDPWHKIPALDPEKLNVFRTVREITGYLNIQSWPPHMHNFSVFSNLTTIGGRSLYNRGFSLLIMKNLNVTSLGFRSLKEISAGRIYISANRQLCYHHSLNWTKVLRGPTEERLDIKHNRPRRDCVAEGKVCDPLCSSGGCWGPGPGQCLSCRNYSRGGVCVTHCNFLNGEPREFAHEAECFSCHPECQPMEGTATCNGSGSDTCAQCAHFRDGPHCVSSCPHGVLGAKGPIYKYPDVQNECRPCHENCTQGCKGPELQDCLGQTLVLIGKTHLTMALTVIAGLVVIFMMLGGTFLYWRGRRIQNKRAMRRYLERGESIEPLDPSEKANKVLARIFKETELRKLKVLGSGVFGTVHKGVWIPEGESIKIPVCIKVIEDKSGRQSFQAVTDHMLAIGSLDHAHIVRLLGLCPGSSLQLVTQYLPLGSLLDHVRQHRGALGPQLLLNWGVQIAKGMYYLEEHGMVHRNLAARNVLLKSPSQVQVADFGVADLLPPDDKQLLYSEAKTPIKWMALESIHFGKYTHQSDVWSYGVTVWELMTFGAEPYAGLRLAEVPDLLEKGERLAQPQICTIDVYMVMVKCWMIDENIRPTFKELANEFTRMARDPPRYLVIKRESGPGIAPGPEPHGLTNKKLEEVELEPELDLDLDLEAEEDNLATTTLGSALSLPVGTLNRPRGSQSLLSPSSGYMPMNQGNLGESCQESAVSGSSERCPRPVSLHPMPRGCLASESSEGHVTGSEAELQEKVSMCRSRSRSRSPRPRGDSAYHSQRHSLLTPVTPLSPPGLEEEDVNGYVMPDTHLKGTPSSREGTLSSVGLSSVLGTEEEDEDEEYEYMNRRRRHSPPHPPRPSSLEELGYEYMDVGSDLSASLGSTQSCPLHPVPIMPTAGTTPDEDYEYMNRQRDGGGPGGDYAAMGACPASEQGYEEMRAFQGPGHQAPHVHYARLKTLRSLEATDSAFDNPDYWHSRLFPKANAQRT

B1: H2M1936N (antibody, mouse IgG2, V domains shown)
VH: EMQLVESGGGLVQPDRSLRLSCAASGFNFDNYAIHWVRQAPGKGLEWVSGISWNSGNIGYADSVKGRFTISRDNAKNSLFLLMNSLRPDDSALYYCTRGYNWNALSPMDVWGQGTTVTVSS
VL: DIQMTQSPSSLSASVGDRVTVTCRASQGISNYLAWYQQKPGKVPKLLIYAASTLQSGVPSRFSGSGSGTDFTLTISSLQPEDVASYYCQNYNSAPMTFGQGTKVEIK
Percent inhibition of Akt phosphorylation, 0.01 µg/ml ErbB3 antibody, DU145 cells + 0.5 nM NRG1: 6%
Percent inhibition of Akt phosphorylation, 0.1 µg/ml ErbB3 antibody, DU145 cells + 0.5 nM NRG1: 30%
Percent inhibition of Akt phosphorylation, 0.5 µg/ml ErbB3 antibody, DU145 cells + 0.5 nM NRG1: 67%

B3: H2M1938N (antibody, mouse IgG2, V domains shown)
VH: EVQLVESGGGVVRPGGSLRLSCAASGFTFDDYGMSWVRQVPGKGLEWVSGLNWNGGITGYTDSVKGRFTISRDNAKNSLYLQMNSLRAEDTAFYHCARDSGDQDAFDIWGQGTMVTVSS
VL: QIVMTQSPATLSVSPGERATLSCRASQSITPYLAWYQQKPGQTPRLLIYGVSTRATGIPARFSGSGSGTEFTLTISSLQSEDFAVYYCQQYDNWYTFGQGTKLEIK
Percent inhibition of Akt phosphorylation, 0.01 µg/ml ErbB3 antibody, DU145 cells + 0.5 nM NRG1: 40%
Percent inhibition of Akt phosphorylation, 0.1 µg/ml ErbB3 antibody, DU145 cells + 0.5 nM NRG1: 63%
Percent inhibition of Akt phosphorylation, 0.5 µg/ml ErbB3 antibody, DU145 cells + 0.5 nM NRG1: 74%

B4: H1M1940N (antibody, V domains shown)
VH: QVQVVESGGGVVQPGRSLRLSCAASGFTFSDYGMHWVRQAPGKGLEWVAIISYDGSNKYYADSVKGRFTVSRDNSKNTLYLQLDSLRPEDAAVFYCAREGAFNLDYYAMDVWGQGTTVTVSS
VL: AIQMTQSPSSLSASVGDRVTITCRASQDIRNDLGWYQQKPGKAPNLLIYAASSLQSGVPSRFSGSGSGTDFTLTISSLQPEDFATYYCLQDSNYPLTFGGGTKVEIK
Percent inhibition of Akt phosphorylation, 0.01 µg/ml ErbB3 antibody, DU145 cells + 0.5 nM NRG1: 13%
Percent inhibition of Akt phosphorylation, 0.1 µg/ml ErbB3 antibody, DU145 cells + 0.5 nM NRG1: 50%
Percent inhibition of Akt phosphorylation, 0.5 µg/ml ErbB3 antibody, DU145 cells + 0.5 nM NRG1: 68%

Results, then the binder that gave them:

Percent inhibition of Akt phosphorylation, 0.01 µg/ml ErbB3 antibody, DU145 cells + 0.5 nM NRG1: -13%
Percent inhibition of Akt phosphorylation, 0.1 µg/ml ErbB3 antibody, DU145 cells + 0.5 nM NRG1: 41%
Percent inhibition of Akt phosphorylation, 0.5 µg/ml ErbB3 antibody, DU145 cells + 0.5 nM NRG1: 71%
B2: H2M1937N (antibody, mouse IgG2, V domains shown)
VH: QVQLQQWDAGLLKPSETLSLTCAVYGGSFSSYYWSWIRQPPGKGLEWIGEINHRGSTNYNPSLKSRVTISVDTSKNQFSLKLRSVTAADTAVYYCARGGVAARPDWHFFDYWGQGTLVTVSS
VL: DIQMTQSPSSLSASVGDRVTITCRASQVIRNDLGWFQQRPGKAPKRLIYAASSLQSEVPSRFSGSGSGTEFTLTITSLQPEDFATYYCLQHNSYPLTFGQGTRLEIK

Percent inhibition of Akt phosphorylation, 0.01 µg/ml ErbB3 antibody, DU145 cells + 0.5 nM NRG1: 39%
Percent inhibition of Akt phosphorylation, 0.1 µg/ml ErbB3 antibody, DU145 cells + 0.5 nM NRG1: 64%
Percent inhibition of Akt phosphorylation, 0.5 µg/ml ErbB3 antibody, DU145 cells + 0.5 nM NRG1: 66%
B5: H2M1930N (antibody, mouse IgG2, V domains shown)
VH: EVQLVESGGGLVKPGGSLRLSCVASGFTFSSYNMNWVRQAPGKGLEWVSFISGSSNYIHYADSVKGRFTISRDNAKNALYLQMNSLRAEDTAVYYCARDDGDYDWFDPWGQGTLVTVSS
VL: EIVLTQSPGTLSLSPGERATLSCRASQSVSSSYLAWYQQKPGQAPRLLIYGTSSRATGIPDRFSGSGSGTDFTLTISRLEPEDFAVYYCQQYDNSYTFGQGTKLEIK

Percent inhibition of Akt phosphorylation, 0.01 µg/ml ErbB3 antibody, DU145 cells + 0.5 nM NRG1: 20%
Percent inhibition of Akt phosphorylation, 0.1 µg/ml ErbB3 antibody, DU145 cells + 0.5 nM NRG1: 56%
Percent inhibition of Akt phosphorylation, 0.5 µg/ml ErbB3 antibody, DU145 cells + 0.5 nM NRG1: 67%
B6: H2M1934N (antibody, mouse IgG2, V domains shown)
VH: EVQLVQSGGGLVKPGGSLRLSCAASGFTFSNFNMNWVRQAPGKGLEWVSFISSLSTYTYYADSVKGRFTISRDNAKNSLYLQMNSLRAEDTAVYYCARDDGDHDWFDPWGQGTLVTVSS
VL: B5 VL with G9D, S32N, G51S, T52A, S54N, N94S
